According to patent US20120178124A1, “STEROL SIDE CHAIN-CLEAVING ENZYME PROTEIN AND USE THEREOF” (MITSUBISHI CHEMICAL CORPORATION, priority 2009, published 2012):

Assays:
Type in all cases: biochemical
[1] = Analysis of the optimum pH, conversion of 4-cholesten-3-one by cell-free extract; conditions: for Specific activity: 4-cholesten-3-one to progesterone, 30° C., 14 hours
Protocol: (§1) To 20 ml of the cell suspension prepared in (2) above, 680 μl of X10 Bug Buster (Novagen), 20 μl of Benzonase (Novagen), and 2 ml of 40 mg/ml lysozyme were added, and the obtained mixture was then shaken at 30° C. for 30 minutes to disintegrate the cells. Thereafter, the reaction solution was centrifuged to obtain the cell-free extract. The obtained, approximately 20 ml of cell-free extract was dialyzed against 1 L of Buffer R (20 mM KPB pH 7.4, 20% glycerol) two times, and the deposited precipitate was then removed by centrifugation. The cell-free extract obtained as a supernatant herein was used in the subsequent experiments.
Using the cell-free extract prepared in (3) above, conversion of 4-cholesten-3-one was carried out at various pH values. The reaction solution was prepared, such that 1 ml of Buffer R comprised […] CYP204A1 or […] CYPSS204A, 64 μg/ml spinach-derived ferredoxin, a 0.1 U/ml spinach-derived ferredoxin reductase protein, 3 U/ml glucose dehydrogenase, 60 mM glucose, 50 μg/ml 4-cholesten-3-one, 2 mM NADH, and 2 mM NADPH. Then, 562 μl of 200 mM Buffer having various pH values was added to 1 ml of the reaction solution, so as to adjust the pH of the reaction solution. The reaction was initiated by the addition of NADH and NADPH, and it was carried out at 200 rpm at 30° C. for 14 hours. Thereafter, 1.5 ml of ethyl acetate was added to the reaction solution to terminate the reaction, and extraction was carried out. Then, extraction was carried out again with 0.75 ml of ethyl acetate. The obtained ethyl acetate phase was solidified using evaporator, and the residue was then dissolved in 200.d of methanol. Thereafter, progesterone was detected by HPLC analysis. The enzyme protein activity for conversion of 4-cholesten-3-one to progesterone under various pH conditions is shown in Table 1. The enzyme protein activity was indicated by the amount (g) of progesterone generated per hour per mol of P450.

[2] = Analysis of the optimum temperature, conversion of 4-cholesten-3-one by cell-free extract; conditions: for Specific activity: Tris-HCl pH 7.5, 4 hours, 4-cholesten-3-one to progesterone
Protocol: as §1
Using the cell-free extract prepared in (3) above, conversion of 4-cholesten-3-one was carried out at […]. The reaction solution was prepared, such that 1 ml of the buffer comprised 215 pmol/ml CYP204A1 or 391 pmol/ml CYPSS, 64 μg/ml spinach-derived ferredoxin, 0.1 U/ml spinach-derived ferredoxin reductase protein, 3 U/ml glucose dehydrogenase, 60 mM glucose, 50 μg/ml 4-cholesten-3-one, 2 mM NADH, and 2 mM NADPH. Tris-HCl was added to the reaction solution so as to adjust it to pH 7.5. The reaction was initiated by addition of NADH and NADPH, and it was carried out at 200 rpm for 4 hours, under temperature conditions of 10° C., 15° C., 20° C., 25° C., or 30° C. Thereafter, 1.5 ml of ethyl acetate was added to the reaction solution to terminate the reaction, and extraction was carried out. Then, extraction was carried out again with 0.75 ml of ethyl acetate. The obtained ethyl acetate phase was solidified using evaporator, and the residue was then dissolved in 200 μl of methanol. Thereafter, progesterone was detected by HPLC analysis. The enzyme protein activity for conversion of 4-cholesten-3-one to progesterone under various temperature conditions is shown in Table 1.

[3] = pH stability test of cell-free extract; conditions: for Relative activity: 140 hr versus 0 hr, 6° C.; for Activity 0 hr: immediately after mixing, reaction 15° C., 4 hours, pH 7.5
Protocol: as §1
0.5 ml of the cell-free extract prepared in (3) above was mixed with 0.5 ml of 50 mM buffer having various pH values, pH was then measured, and the mixture was then conserved at 6° C. for 140 hours. […] Using the prepared cell-free extracts having various pH values, conversion of 4-cholesten-3-one was carried out. The reaction was carried out, immediately after the enzyme protein solution was mixed with buffers having various pH values and after the mixed solution was conserved for 140 hours, so as to examine the stability. The reaction solution was prepared, such that 1 ml of the buffer comprised an enzyme protein solution of CYP204A1 or CYPSS having various pH values, 64 μg/ml spinach-derived ferredoxin, 0.1 U/ml spinach-derived ferredoxin reductase protein, 3 U/ml glucose dehydrogenase, 60 mM glucose, 50 μg/ml 4-cholesten-3-one, 2 mM NADH, and 2 mM NADPH. To the reaction solution, 562 μl of 200 mM Tris-HCl was added, so as to adjust the reaction solution to pH 7.5. It was confirmed that the reaction solution maintained pH 7.5, even though enzyme protein solutions having various pH values were added thereto. The reaction was initiated by addition of NADH and NADPH, and it was carried out at 200 rpm at 15° C. for 4 hours. Thereafter, 1.5 ml of ethyl acetate was added to the reaction solution to terminate the reaction, and extraction was carried out. Then, extraction was carried out again with 0.75 ml of ethyl acetate. The obtained ethyl acetate phase was solidified using an evaporator, and the residue was then dissolved in 200 μl of methanol. Thereafter, progesterone was detected by HPLC analysis.

B1: Sphingomonas subterranea NBRC16086 P450scc CYPSS204A (CYPSS), wild type, SEQ ID NO: 2 (Novosphingobium subterraneum) (protein)
chain: MASAAAGADGLPLLDGGVPLLGHLAQFFRDPVSVLKRGYRSKGRLFAMNFMGQRMNVMLGPEHNRFFFEETDKLLSIRESMPFFLKMFSPEFYSFAEMDEYLRQRAIIMPRFKAASMKQYVPVMVEESLNLVERLGEEGEFDLIPTLGPVVMDIAAHSFMGREFHEKLGHEFFELFRDFSGGMEFVLPLWLPTPKMVKSQRAKKKLHAILQSWIDKRRASPLDPPDFFQTMIETKYPDGRAVPDEIIRHLILLLVWAGHETTAGQVSWALADLLQNPGYQQVLREEVASLLGGSDGRALGWEQAVAMEKMDLALRETERLHPVAYMLSRKASADIERDGYRIRKGEFVLLAPSVSHRMEETFRNADAYDPERFNPQNPDAQIESNSLIGFGGGVHRCAGVNFARMEMKVLVAILLQNFDMELIDEVRPIAGASTYWPAQPCRVRYKRRKLDGAGGSADVAALAKAAGCPAHA
[1]; KPB pH 6.2
  Specific activity: 0 g/h/mol
[1]; KPB pH 6.7
  Specific activity: 19 g/h/mol
[1]; KPB pH 7.1
  Specific activity: 21 g/h/mol
[1]; KPB pH 7.4
  Specific activity: 0 g/h/mol
[1]; KPB pH 7.9
  Specific activity: 0 g/h/mol
[1]; TES pH 6.6
  Specific activity: 0 g/h/mol
[1]; TES pH 6.8
  Specific activity: 16 g/h/mol
[1]; TES pH 7.3
  Specific activity: 76 g/h/mol
[1]; TES pH 7.5
  Specific activity: 165 g/h/mol
[1]; TES pH 8.0
  Specific activity: 168 g/h/mol
[1]; Tris-HCl pH 7.5
  Specific activity: 301 g/h/mol
[1]; Tris-HCl pH 8.2
  Specific activity: 269 g/h/mol
[1]; Tris-HCl pH 8.7
  Specific activity: 40 g/h/mol
[1]; conversion of 4-cholesten-3-one to progesterone
  optimum pH (pH of highest activity): 7.5
[2]; 10° C.
  Specific activity: 918 g/h/mol
[2]; 15° C.
  Specific activity: 1279 g/h/mol
[2]; 20° C.
  Specific activity: 1133 g/h/mol
[2]; 25° C.
  Specific activity: 936 g/h/mol
[2]; 30° C.
  Specific activity: 465 g/h/mol
[2]; conversion of 4-cholesten-3-one to progesterone, pH 7.5
  optimum temperature for action (temperature of highest activity): 15 °C
[3]; AcB pH 6.0
  Relative activity: 37%
  Activity 0 hr: 7.3 µg/mL
[3]; AcB pH 6.0, conserved at 6° C. for 140 hours
  Activity 140 hr: 2.7 µg/mL
[3]; KPB pH 6.7
  Relative activity: 61%
  Activity 0 hr: 7.1 µg/mL
[3]; KPB pH 6.7, conserved at 6° C. for 140 hours
  Activity 140 hr: 4.3 µg/mL
[3]; KPB pH 7.2
  Relative activity: 73%
  Activity 0 hr: 7.3 µg/mL
[3]; KPB pH 7.2, conserved at 6° C. for 140 hours
  Activity 140 hr: 5.3 µg/mL
[3]; KPB pH 7.6
  Relative activity: 85%
  Activity 0 hr: 6.5 µg/mL
[3]; KPB pH 7.6, conserved at 6° C. for 140 hours
  Activity 140 hr: 5.5 µg/mL
[3]; KPB, conserved at 6° C. for 140 hours
  pH at which most stable: 7.6
[3]; TES pH 7.5
  Relative activity: 71%
  Activity 0 hr: 7.3 µg/mL
[3]; TES pH 7.5, conserved at 6° C. for 140 hours
  Activity 140 hr: 5.2 µg/mL
[3]; Tris pH 7.4
  Relative activity: 63%
  Activity 0 hr: 8 µg/mL
[3]; Tris pH 7.4, conserved at 6° C. for 140 hours
  Activity 140 hr: 5 µg/mL
[3]; Tris pH 8.1
  Relative activity: 65%
  Activity 0 hr: 6.9 µg/mL
[3]; Tris pH 8.1, conserved at 6° C. for 140 hours
  Activity 140 hr: 4.5 µg/mL
[3]; Tris pH 8.9
  Relative activity: 51%
  Activity 0 hr: 7.3 µg/mL
[3]; Tris pH 8.9, conserved at 6° C. for 140 hours
  Activity 140 hr: 3.7 µg/mL
